Results published in the supplement of paper PMC9112550, “Optimization of the antimicrobial peptide Bac7 by deep mutational scanning” (BMC Biology, 2022).

tested on: Escherichia coli TOP10; test: shrunken log2 fold change of peptide-encoding DNA abundance (4.5 h post-induction vs induction); higher = less antimicrobial activity (less host growth inhibition); details: time post-induction: 4.5 h; library: site-saturation at positions 5, 18, 19, 20
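Further: peptides expressed intracellularly from a pBAD plasmid library in pooled LB shake-flask culture, induced with 0.3% L-arabinose, DNA abundance read by NGS, three biological replicates, DESeq2 with apeglm shrinkage.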

Sequence | shrunken log2 fold change
RRIRSRPPRLPRPRPRPGSVPRP | -0.0129
RRIRSRPPRLPRPRPRPGVEPRP | 0.463
RRIRSRPPRLPRPRPRPGVMPRP | 0.161
RRIRSRPPRLPRPRPRPGWGPRP | 0.291
RRIRSRPPRLPRPRPRPGYCPRP | -0.119
RRIRSRPPRLPRPRPRPGYLPRP | -0.388
RRIRSRPPRLPRPRPRPHAYPRP | 0.0215
RRIRSRPPRLPRPRPRPHELPRP | -0.101
RRIRSRPPRLPRPRPRPHFLPRP | -0.318
RRIRSRPPRLPRPRPRPHHKPRP | -0.564
RRIRSRPPRLPRPRPRPHHLPRP | -0.903
RRIRSRPPRLPRPRPRPHHPPRP | -0.369
RRIRSRPPRLPRPRPRPHHYPRP | -0.998
RRIRSRPPRLPRPRPRPHLEPRP | -0.395
RRIRSRPPRLPRPRPRPHMVPRP | -0.112
RRIRSRPPRLPRPRPRPHPAPRP | -0.177
RRIRSRPPRLPRPRPRPHPEPRP | 0.316
RRIRSRPPRLPRPRPRPHPRPRP | 0.375
RRIRSRPPRLPRPRPRPHQCPRP | -0.325
RRIRSRPPRLPRPRPRPHQDPRP | -0.117
RRIRSRPPRLPRPRPRPHRDPRP | -0.141
RRIRSRPPRLPRPRPRPHRKPRP | -0.077

Sequence | shrunken log2 fold change
RRIRSRPPRLPRPRPRPHRTPRP | -0.0768
RRIRSRPPRLPRPRPRPHSRPRP | -0.322
RRIRSRPPRLPRPRPRPHTQPRP | -0.433
RRIRSRPPRLPRPRPRPHVFPRP | 2.95
RRIRSRPPRLPRPRPRPHVPPRP | -0.149
RRIRSRPPRLPRPRPRPHWIPRP | -0.279
RRIRSRPPRLPRPRPRPHWMPRP | 0.0168
RRIRSRPPRLPRPRPRPIADPRP | 0.191
RRIRSRPPRLPRPRPRPIAGPRP | -0.00669
RRIRSRPPRLPRPRPRPIAPPRP | -0.0336
RRIRSRPPRLPRPRPRPIASPRP | 0.0102
RRIRSRPPRLPRPRPRPICLPRP | 0.259
RRIRSRPPRLPRPRPRPIDHPRP | -0.273
RRIRSRPPRLPRPRPRPIDLPRP | -0.546
RRIRSRPPRLPRPRPRPIEQPRP | -0.0141
RRIRSRPPRLPRPRPRPIFMPRP | -0.117
RRIRSRPPRLPRPRPRPIFTPRP | -0.275
RRIRSRPPRLPRPRPRPIGRPRP | 0.104
RRIRSRPPRLPRPRPRPIHGPRP | -0.159
RRIRSRPPRLPRPRPRPIHLPRP | 0.0485
RRIRSRPPRLPRPRPRPIHMPRP | -0.397
RRIRSRPPRLPRPRPRPIHTPRP | -0.112

Sequence | shrunken log2 fold change
RRIRSRPPRLPRPRPRPIIFPRP | -0.35
RRIRSRPPRLPRPRPRPIMDPRP | -0.0619
RRIRSRPPRLPRPRPRPIMTPRP | 0.164
RRIRSRPPRLPRPRPRPIMVPRP | -0.644
RRIRSRPPRLPRPRPRPIMYPRP | -0.42
RRIRSRPPRLPRPRPRPINEPRP | -0.249
RRIRSRPPRLPRPRPRPINRPRP | -0.225
RRIRSRPPRLPRPRPRPIQPPRP | 0.117
RRIRSRPPRLPRPRPRPIRVPRP | 0.047
RRIRSRPPRLPRPRPRPISQPRP | -0.387
RRIRSRPPRLPRPRPRPISSPRP | -0.0591
RRIRSRPPRLPRPRPRPITAPRP | -0.0161
RRIRSRPPRLPRPRPRPITNPRP | 0.266
RRIRSRPPRLPRPRPRPITQPRP | -0.0534
RRIRSRPPRLPRPRPRPIVYPRP | -0.255
RRIRSRPPRLPRPRPRPIWRPRP | 0.639
RRIRSRPPRLPRPRPRPIWSPRP | 0.0119
RRIRSRPPRLPRPRPRPIWTPRP | -0.254
RRIRSRPPRLPRPRPRPIWVPRP | 0.0576
RRIRSRPPRLPRPRPRPIYMPRP | -0.533
RRIRSRPPRLPRPRPRPKADPRP | 0.572
RRIRSRPPRLPRPRPRPKAQPRP | 0.103

Sequence | shrunken log2 fold change
RRIRSRPPRLPRPRPRPKCCPRP | -0.0585
RRIRSRPPRLPRPRPRPKCEPRP | -0.125
RRIRSRPPRLPRPRPRPKDLPRP | 0.184
RRIRSRPPRLPRPRPRPKECPRP | -0.043
RRIRSRPPRLPRPRPRPKFPPRP | 0.0385
RRIRSRPPRLPRPRPRPKFSPRP | 0.0488
RRIRSRPPRLPRPRPRPKFYPRP | -0.371
RRIRSRPPRLPRPRPRPKHGPRP | -0.22
RRIRSRPPRLPRPRPRPKHSPRP | -0.572
RRIRSRPPRLPRPRPRPKHTPRP | -0.206
RRIRSRPPRLPRPRPRPKICPRP | -0.0675
RRIRSRPPRLPRPRPRPKKLPRP | 0.0709
RRIRSRPPRLPRPRPRPKKMPRP | -0.178
RRIRSRPPRLPRPRPRPKKPPRP | 0.0165
RRIRSRPPRLPRPRPRPKLGPRP | 0.281
RRIRSRPPRLPRPRPRPKLKPRP | 0.149
RRIRSRPPRLPRPRPRPKMCPRP | -0.015
RRIRSRPPRLPRPRPRPKMHPRP | 0.157
RRIRSRPPRLPRPRPRPKMMPRP | -0.214
RRIRSRPPRLPRPRPRPKMQPRP | 0.055
RRIRSRPPRLPRPRPRPKMVPRP | -0.309
RRIRSRPPRLPRPRPRPKNNPRP | -0.273

Sequence | shrunken log2 fold change
RRIRSRPPRLPRPRPRPKNPPRP | -0.11
RRIRSRPPRLPRPRPRPKPGPRP | 0.283
RRIRSRPPRLPRPRPRPKPIPRP | 0.271
RRIRSRPPRLPRPRPRPKPKPRP | 0.545
RRIRSRPPRLPRPRPRPKPVPRP | 0.0648
RRIRSRPPRLPRPRPRPKPWPRP | 0.463
RRIRSRPPRLPRPRPRPKQFPRP | 0.26
RRIRSRPPRLPRPRPRPKSCPRP | 0.61
RRIRSRPPRLPRPRPRPKTPPRP | 0.405
RRIRSRPPRLPRPRPRPKTRPRP | 0.156
RRIRSRPPRLPRPRPRPKTVPRP | 0.0369
RRIRSRPPRLPRPRPRPKTWPRP | -0.0488
RRIRSRPPRLPRPRPRPKYNPRP | -0.62
RRIRSRPPRLPRPRPRPKYVPRP | -0.527
RRIRSRPPRLPRPRPRPLCKPRP | -0.137
RRIRSRPPRLPRPRPRPLDQPRP | -0.0226
RRIRSRPPRLPRPRPRPLEPPRP | -0.132
RRIRSRPPRLPRPRPRPLFIPRP | -0.74
RRIRSRPPRLPRPRPRPLFYPRP | -0.413
RRIRSRPPRLPRPRPRPLHRPRP | -0.216
RRIRSRPPRLPRPRPRPLHWPRP | 0.197
